The source of these data is the nanobody polyreactivity screen of Harvey et al. (2022).

This data set in a line: yeast display, Sf9 membrane polyspecificity reagent, FACS + sequencing; frameworks hold sequencing errors. The gist of the method: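 Genes from sorted yeast were amplified by colony PCR, read by MiSeq 2 × 250 sequencing and filtered on CDR length. These cells carried a synthetic nanobody library in Saccharomyces cerevisiae BJ5465 and were sorted by FACS into low and high (top ~1%) gates on anti-HA and streptavidin fluorescence. Polyreactivity is labelled according to the gate of origin.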
In the case of “QVQLVESGGGLVQAGGSLRLSCAASGFIFRYNTMGWYRQAPGIVRELVAAISVSGARTYYADSVKGRFTISRDNAKKTVYLQMNSLKPEDTAVYYCNRRYPFYSRYNNDYWGLGTQVTVSS”, the “polyreactivity (PSR sort gate)” value is recorded as “high polyreactivity”.
For “QVQLVESGGGLVQAGGSLRLSCAASGFIFRYNTMGWYRQEPGKERELVAAISKSGGRTYYADSVKGRFTISRDNAMNTVYLQMNSLNPEDTAVYYCAATLSYTGSKRYDYWGQGTQVTVSS”, the “polyreactivity (PSR sort gate)” value is “high polyreactivity”.
Regarding “QVQLVESGGGLVQAGGSLRLSCAASGFIFRYYAMGWSRQAPGKERELVASINSGGSTYYADSVKGRFTISRDNAKNTVYLQMNSLKPEDTAVYYCAVVLQYDWAYEKSYYWGQGTQVTVSS”, the “polyreactivity (PSR sort gate)” value is listed as “low polyreactivity”.
The value for “QVQLVESGGGLVQAGGSLRLSCAASGFIFRYYAMGWSRQAPGKERELVAVISSNGARTSYADSVKGRFTISRDNAKNTVYLQMNSLKPEDTAVYYCNARAWSRFPPVGHDYWGQGTQVTVSS” was “high polyreactivity”.
“QVQLVESGGGLVQAGGSLRLSCAASGFIFRYYAMGWYRQAPGKERELVAAISRGGSTNYADSVKGRFTISRDNAKNTVYLQMNSLKPEDTAVYYCAARTVRARSKFEYWGQGTQVTVSS”: the “polyreactivity (PSR sort gate)” value is recorded as “high polyreactivity”.
With “QVQLVESGGGLVQAGGSLRLSCAASGFIFRYYAMGWYRQAPGKERELVAAISRSGGRTYYADSVKGRFTISRDNAKNTVYLQMNSLKPEDTAVYYCAARYPVRPDDGYWGQGTQVTVSS”, the “polyreactivity (PSR sort gate)” value was “high polyreactivity”.
Take “QVQLVESGGGLVQAGGSLRLSCAASGFIFRYYAMGWYRQAPGKERELVAAISSGGRTSYADSVKGRFTISRDNAKNTVYLQMNSLKPEDTAVYYCAADRWRGLFYYGNDYWGQGTQVTVSS”: the “polyreactivity (PSR sort gate)” value is given as “high polyreactivity”.
As to “QVQLVESGGGLVQAGGSLRLSCAASGFIFRYYAMGWYRQAPGKERELVAAISSRAGRTYADSVKGRFTISRDNAKYSVYLQMNSLKPEDTAVYYCAVRSKRKDVGYWGQGTQVTVSS”, the “polyreactivity (PSR sort gate)” value is recorded as “high polyreactivity”.
The same measure for “QVQLVESGGGLVQAGGSLRLSCAASGFIFRYYAMGWYRQAPGKERELVAAITSRGSSTYYADSVKGRFTISRDNAKNTVYLQMNSLKPDDTAVYYCAARLRGDYVRYDYWGQGTQVTVSS”: “high polyreactivity”.
For “QVQLVESGGGLVQAGGSLRLSCAASGFIFRYYAMGWYRQAPGKERELVAAITSRGSSTYYADSVKGRFTISRDNAKNTVYLQMNSLKPEDTAVYYCAARSSATRSWIASRPGYRYNYWGQGTQVTVSS”, the “polyreactivity (PSR sort gate)” value is “high polyreactivity”.
“QVQLVESGGGLVQAGGSLRLSCAASGFIFRYYAMGWYRQEPGKERELVAAIDYSGGSTNYADSVKGRFTISRDNAKNTVYLQMNSLKPEDTAVYYCNAEYTWHRGYDYWGQGTQVTVSS”: the “polyreactivity (PSR sort gate)” value is “low polyreactivity”.
Turning to “QVQLVESGGGLVQAGGSLRLSCAASGFIFRYYAMGWYRQEPGKERELVAAISGSGGSKYYADSVKGRFTISRDNAKNNVYLQMNSLKQEDTAVYYFAKSYGSHRKIRTSFGYWGQGTQVTVSS”, the “polyreactivity (PSR sort gate)” value was “high polyreactivity”.
As to “QVQLVESGGGLVQAGGSLRLSCAASGFIFRYYAMGWYRQEPGKERELVAAITSRGSSTYYADSVKGRFTISRDNAKNTVYLQMNSLKPEDTAVYYCAARLRGDYVRYDYWGQGTQVTVSS”, the “polyreactivity (PSR sort gate)” value is “high polyreactivity”.
The value for “QVQLVESGGGLVQAGGSLRLSCAASGFIFRYYARGWYRQAPGKERELVAAITSTGRTYYADSVKGRFTISRDNAKNTVYLQMNSLKPEDTAVYYCAKAWLRWGEDYWGQGTQVTVSS” was “low polyreactivity”; that for “QVQLVESGGGLVQAGGSLRLSCAASGFIFSAYAMGWYRQAPGKERELVAAISYSGGTTYYADSVKGRFTISRDNAKNTVYLQMNSLKPEDTAVYYCAAGVGYWGQGTQVTVSS” was “high polyreactivity”.
In the case of “QVQLVESGGGLVQAGGSLRLSCAASGFIFSIYVMGWYRQAPGKERELVATISSTGSTNYADSVKGRFTISRDNAKNTVYLQMNSLKPEDTAVYYCAAYRRWWGQGTQVTVSS”, the “polyreactivity (PSR sort gate)” value is reported as “high polyreactivity”.
With “QVQLVESGGGLVQAGGSLRLSCAASGFIFSKYAMGWYRQAPGKERELVAAITRSGGRTYYADSVKGRFTISRDNAKNTVYLQMNSLKPEDSAVYYCAASWLYFGRDYWGQGTQVPVSS”, the “polyreactivity (PSR sort gate)” value is “high polyreactivity”.
Regarding “QVQLVESGGGLVQAGGSLRLSCAASGFIFSLYAMGWYRQAPGKERELVAVITWSDGRTYYADSVKGRFTISRDNAKNTVYLQMNSLKQEDTAVYYCAAADWITEYDYWGQGTQVTVSS”, the “polyreactivity (PSR sort gate)” value was “low polyreactivity”.
As to “QVQLVESGGGLVQAGGSLRLSCAASGFIFSNYAMGWYRQAPGKERELVAAISRSGGSTYYADSVKGRFTISRDNAKNTVYLQMNSLKPEDTAVYYCAARHAPILGDHGMKYWGQGTQVTVSS”, the “polyreactivity (PSR sort gate)” value was “high polyreactivity”.
Take “QVQLVESGGGLVQAGGSLRLSCAASGFIFSNYAMGWYRQEPGKERELVAAISWSGTLTNYADSVKGRFTISRDNAKNTVYLQMNSLKPEDTAVYYCAAYGDYLYDYWGQGTQVTVSS”: the “polyreactivity (PSR sort gate)” value was “low polyreactivity”.
Consider “QVQLVESGGGLVQAGGSLRLSCAASGFIFSRNAMGWYRQAPGKEREFVAAISGRGGSTYYADSVKGRFTISRDNAKNTVYVQMNSLKPEDTAVYYCAVYSYGQTYSGYYLGQGTQVTVSS”, for which the “polyreactivity (PSR sort gate)” value is “high polyreactivity”.
As to “QVQLVESGGGLVQAGGSLRLSCAASGFIFSRNVMGWYRQAPGKDRELVAAISRSGGSTYYADSVKGRFTISRDNAKNTVYLQMNSLKPEDTAVYYCAAVRRVYSQNDYWGQGTQVTVSS”, the “polyreactivity (PSR sort gate)” value is recorded as “high polyreactivity”.
The value for “QVQLVESGGGLVQAGGSLRLSCAASGFIFSRYAMGWSRQAPGKERELVAAISSRGGSTYYADSVKGRFTISRDNAKNTVYLQMNSLKPEDTAVFYWIAVGSAHYDYWGQGTQVTVSS” was “high polyreactivity”; that for “QVQLVESGGGLVQAGGSLRLSCAASGFIFSRYAMGWYRQAPGKERELVAAISIGGSTYYADSVKGRFTISRDNAKNTVYLQMNSLKPEDTAVYDCAVDYRHSSSWNAGPWEMYYWGQGTQVTVSS” was “low polyreactivity”.
Consider “QVQLVESGGGLVQAGGSLRLSCAASGFIFSSYAMGSYRQAPGKERELVAAISWSGGSTYYADSVKGRFTISRDNAKNTVYLQMKSLKPEDAAVYYCASVTRIFDYWGQGTQVTVSS”, for which the “polyreactivity (PSR sort gate)” value is on record as “high polyreactivity”.
On to “QVQLVESGGGLVQAGGSLRLSCAASGFIFSSYAMGWYRPAPGKERELVAAISKSGGRTYYADSVKGRFTISRDNAKNTVYLQMNSLKPEDTSVYYCAKDVSDPFYDPFEYWGQGTQVTVSS”, for which the “polyreactivity (PSR sort gate)” value is reported as “low polyreactivity”.
On to “QVQLVESGGGLVQAGGSLRLSCAASGFIFSSYAMGWYRQAPGKERELVAAINSSGGRTYYADSVKGRFTISRDNAKNTVYLQMNSLKPEDTAVYYCAAVVWSYYVGDDYWGQGTQVTVSS”, for which the “polyreactivity (PSR sort gate)” value is “high polyreactivity”.
As to “QVQLVESGGGLVQAGGSLRLSCAASGFIFSSYAMGWYRQAPGKESELVAAITSGGSTNYADSVKGRFTISRDNAKNTVYLQMNSLKPEDTADYYCATLPGGSWFFHWWSTGGDDEYWGQGTQVTVSS”, the “polyreactivity (PSR sort gate)” value is “low polyreactivity”.
Consider “QVQLVESGGGLVQAGGSLRLSCAASGFIFSSYAMGWYRQATGKERELVATISWSGGSTYYADSVKGRFTISRDNAKNTVYLQMNSLKPEDTAVYYCAAGYQRYLQRPEFYYWGQGTQVTVSS”, for which the “polyreactivity (PSR sort gate)” value is reported as “high polyreactivity”.
The same measure for “QVQLVESGGGLVQAGGSLRLSCAASGFIFSTYTMGWYRQAPGKERELVAAISWRGGRTYYADSVKGRFTISRDNAKNTVYLQMNSLKPEDTAVYYCADYGTIRSSTAVEPLYNHWGQGTQVTVSS”: “high polyreactivity”.
Turning to “QVQLVESGGGLVQAGGSLRLSCAASGFIFSVYAMGGYRQAPGKDTELVAVISTSGGRTYYADSVKGRFTISRDNAKNTVYLQMNSLKPEDTAVYYCAADGFQYTLGNYYWGQGTQVTVSS”, the “polyreactivity (PSR sort gate)” value is “high polyreactivity”.
Take “QVQLVESGGGLVQAGGSLRLSCAASGFIFSWYAMGWYRQAPGKERELVAAISHDGGSTYYADSVKGRFTISRDNAKNTVYLQMNSLKAEDTAVYYCAAPLRALSQRMGYWGQGTQVTVSS”: the “polyreactivity (PSR sort gate)” value is given as “high polyreactivity”.
Consider “QVQLVESGGGLVQAGGSLRLSCAASGFIFSYYAMGRYRQAPGKEREMVAAITWSGSSTYYADSVKGRFTISRDNAKNTVYLQMYSLIPEDNAVYSCAASSGGFRHYFYTYNYWGQGTQVTVSS”, for which the “polyreactivity (PSR sort gate)” value is “high polyreactivity”.
Regarding “QVQLVESGGGLVQAGGSLRLSCAASGFIFSYYAMGWYRQAPGKERELVAAISRNGGRTYYADSVKGRFTISRDNAKNTVYLQMNSLKPEDTAVYYCAATTYRTSSYIRYGSPKHDDYWGQGTQVTVSS”, the “polyreactivity (PSR sort gate)” value is reported as “high polyreactivity”.
As to “QVQLVESGGGLVQAGGSLRLSCAASGFIFSYYAMGWYRQAPGKERELVAAITDSGGSTYYADSVKGRFTISRDNAKNTVYLQMNSLKPEDTAVYYCAATYWWAYVWAYSHVKSTNDYWGQGTQVTVSS”, the “polyreactivity (PSR sort gate)” value is “low polyreactivity”.
The value for “QVQLVESGGGLVQAGGSLRLSCAASGFIFSYYAMGWYRQAPGKERELVAAITSSGGSTYYADSVKGRFTISRDNAKNTVYLHLNSLKPEDTAVYYCNAYVRRTRDYDYWGQGTQVTVSS” was “high polyreactivity”.
Consider “QVQLVESGGGLVQAGGSLRLSCAASGFIFSYYAMGWYRQAPGKERELVAAMSSSGSRTYYADSVKGRFTISRDNAKNTVYLQMNSLKPEDTAVYYCAARGWFRGEFDYWGQGTQVTVSS”, for which the “polyreactivity (PSR sort gate)” value was “high polyreactivity”.
The same measure for “QVQLVESGGGLVQAGGSLRLSCAASGFIFSYYAMGWYRQAPGKERELVAVISWSGGSTYYADSVKGRFTISRDNAKNTVYLQMNSLKPEDTAVYYCNAGYTYNRVIWPYYYWGQGTQVTVSS”: “high polyreactivity”.
As for “QVQLVESGGGLVQAGGSLRLSCAASGFIFSYYTMGWYRQAPGKERELVAAISRNGGSTYYADSVKGRFTISRDNAKNTVYLQMNSLKPEDTAVYYCAKRVFNYQRYDYWGQGTQVTVSS”, the “polyreactivity (PSR sort gate)” value is listed as “high polyreactivity”.
The same measure for “QVQLVESGGGLVQAGGSLRLSCAASGFIFSYYTMGWYRQAPGKERELVAAISRRGGSTYYADSVKGRFTISRDNAKNTVYLQMNSLKPEDTAVYYCAAPRDWDAGDYWGQGTQVTVSS”: “high polyreactivity”; for “QVQLVESGGGLVQAGGSLRLSCAASGFIFTANAMGWYRQAPGKEMELVAAISRSGGRTYYADSVKGRFTISRDNAKNTVYLQMNSLKPEDTAVYYCAAPYRSYDWYDYWGQGTQVTVSS”: “high polyreactivity”.
